Target: T1, ABH2 WT (human, UniProt Q6NS38 1-261)
T1 sequence: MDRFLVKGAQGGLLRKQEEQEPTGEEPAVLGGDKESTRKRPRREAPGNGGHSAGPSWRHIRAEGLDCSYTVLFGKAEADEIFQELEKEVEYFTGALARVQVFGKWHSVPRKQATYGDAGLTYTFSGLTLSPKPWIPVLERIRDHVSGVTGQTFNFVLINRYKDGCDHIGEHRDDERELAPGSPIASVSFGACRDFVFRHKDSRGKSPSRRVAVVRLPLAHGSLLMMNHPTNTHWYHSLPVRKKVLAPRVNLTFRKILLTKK
Assay: EMSA; 0.5 mM αKG, 10 mM Mg2+, 2 mM ascorbate; EMSA: 50 mM Tris-HCl pH 8.0, 50 mM KCl, 10 mM MgCl2, 0.5 mM αKG, 2 mM Na ascorbate; 1.2 µM DNA, 0.4-12.8 µM protein; 10 min 37 °C then 5 min on ice; 10% native
Conditions: protein: recombinant; tags: N-terminal His6; label: 5'-FAM on strand 1; blunt

B1: m1A (dsDNA)
DNA 1: AGTTCAATGATCTTCAT
DNA 2: ATGAAGATCATTGAACT
modifications: N1-methyladenine at position 10 of strand 1
  Kd: 2450 ± 70 nM

B2: m3C (dsDNA)
DNA 1: AGTTCAATGATCTTCAT
DNA 2: ATGAAGATCATTGAACT
modifications: N3-methylcytosine at position 12 of strand 1
  Kd: 3500 ± 100 nM

Source: article PMC10377887, “Individual Contributions of Amido Acid Residues Tyr122, Ile168, and Asp173 to the Activity and Substrate Specificity of Human DNA Dioxygenase ABH2”
